Measured values: patent publication US6518013

Biological target: viral gp41 (HIV-1 transmembrane envelope protein) of HIV-1IIIB (HIV-1IIIB) (UniProt P04578)
Experiment: cell-based or functional assay

Q: For “DP107 (synthetic peptide, residues 558 to 595 of HIV-1LAI gp41)”, which Cell fusion (IC90) is on record?
A: 1000 nM

Q: And the HIV infectivity (IC90)?
A: 1000 nM

Q: Which results are given for “DP178 (synthetic peptide, amino acids 638 to 673 of HIV-1LAI gp41)”?
A: Cell fusion (IC90): 1 nM; HIV infectivity (IC90): 80 nM

Q: “M41 (maltose binding protein fusion of the gp41 ectodomain, residues 540-686) (from UniProt P0AEX9 27-392; P03377 540-686)” was tested. Which Cell fusion (IC90) did it give?
A: > 50000 nM

Q: And the HIV infectivity (IC90)?
A: > 16000 nM

Q: Which Cell fusion (IC90) does the source give for “M41-P (M41 with an Ile to Pro mutation at position 578) (from UniProt P0AEX9 27-392; P03377 540-686)” here?
A: 83 nM

Q: And the HIV infectivity (IC90)?
A: 66 nM

Q: What does the source list for “M41-PΔ178 (M41-P from which the DP-178 region has been deleted; gp41 residues 540-642 with Ile578Pro) (from UniProt P03377 540-642)”?
A: Cell fusion (IC90): > 50000 nM; HIV infectivity (IC90): > 8000 nM
